Measured values from US20020160010A1.

Target: CD44 variant carrying the epitope coded by exon v6 on human Langerhans cells and dendritic cells (human) (UniProt P16070)

binding of cultivated LCs and cytokine-activated DCs to paracortical T-cell zones of lymph node frozen sections: < 66 % inhibition
Substance: VFF18 (antibody)
